The values below come from patent publication US6093692A, “Method and compositions for lipidization of hydrophilic molecules” (The University of Southern California, priority 1997, dated 2000).

Data set [1] is classed as in vitro ADME, hairless mice. Here is the method: Freshly-prepared skins from hairless mice were mounted on small rings. To each mounted skin, a 5 μl sample of ^125 I-labeled BBI or BBIssPal at a concentration of 0.5 mg/ml was applied to an area of 0.38 cm^2. Two pieces of skin were used per treatment. The skins were kept at room temperature (23° C.) in a humidified environment. After 30 minutes, the surface of the skins was first rinsed carefully with PBS; subsequently, the skins were unmounted and soaked twice in 100 ml of PBS. The skins were then blotted with filter papers and counted in a gamma counter. The amount of BBI retained on the skins was calculated using the specific radioactivity of the labeled BBI or BBIssPal. The absorption of BBI and BBIssPal into the mouse skins was 0.14 and 1.6 μg/cm^2, respectively.

Data set [2] has as its system C3H 10T1/2(clone 8) cells. Description: In vitro transformation assay (MCA-induced). It is filed as cell-based. How it is done:
Transformation assays were carried out using C3H 10T1/2(clone 8) cells according to the published recommendations [Reznikoff, C. A., et al., Cancer. Res., 33:3239-3249 (1973); Reznikoff, C. A., et al., Cancer. Res., 33:3231-3238 (1973)]. Stock cultures of mycoplasma-free cells were maintained by passing 50,000 cells per 75 cm^2 flask every seven days. Using this schedule, the cells were always passed approximately 2 days before reaching confluence. The stock culture was grown in Eagle's basal medium supplemented with 10% FBS, penicillin (100 units), and streptomycin (100 μg) and used for the transformation assays at passages of 9 to 14. The cells were passed by treating the stock cells with trypsin (0.1%) in PBS for 5 min and quenching the trypsin with 5 ml of the medium. This procedure was adapted to minimize spontaneous transformation in the stock cultures and maximize the plating efficiency in the petri dishes. The FBS stock used in the cultures was pre-screened to ensure that the serum was able to support the expression and the growth of the transformed cells.
For the transformation assays, C3H 10T1/2 cells (1000/dish) were seeded into 60 mm petri dishes and allowed to grow in a humidified 5% CO2 atmosphere in Eagle's basal medium, supplemented with 10% FBS, penicillin (100 units), and streptomycin (100 μg), for 24 hr. Subsequently, the cells were initiated by treatment with 25 μl of the 3-methylcholanthrene (MCA) in acetone stock solution ([…]) to a final concentration of 1 μg/ml of MCA (5 μg/5 ml). The cells were allowed to grow in the presence of the carcinogen or solvent for 24 hr, and the medium in each dish was then replaced with fresh medium containing no carcinogen or solvent. The medium in the dishes was replaced twice per week for the first two weeks of the assay, and thereafter once a week for the remainder four weeks of the assay. In the experiments designed to determine the transformation inhibitory activity of the conjugates, the cells were maintained in the medium containing the conjugates (1 μg/ml) for the first three weeks of the assay; thereafter, the cells were maintained in medium containing no added conjugates.
Six weeks after the carcinogen treatment, the cells were inspected under a microscope for adherence to the culture dishes and were washed with PBS and then fixed in 100% methanol. The fixed monolayers were then stained with Giemsa stain. Twenty dishes per group were treated in each experiment. In addition to the test groups, all the transformation assays contained at least three other groups: negative control (not treated with carcinogen or solvent), acetone control (treated with 25 μl of acetone), and positive control [treated with MCA (1 μg/ml) in 25 μl of acetone]. The transformed foci (>3 mm in diameter) in the plates were studied under a microscope and classified according to published guidelines as types I, II, or III [Landolph, J. R., Transfomatin assay of established cell lines: Mechanism and Application (ed. Kakunaga, T., and Yamasaki, H.) IARC Scientific Publications, Lyon, France pp. 185-201 (1985)]. Briefly, type III foci were dense, multilayered, basophilic, areas of cell growth which stained to a deep blue color with Giemsa and had rough crisscrossed edges. Type II foci were also dense, multilayered, areas of cell growth, but were stained to a purple color with Giemsa and had smoother, more defined edges compared to Type III foci. Type I foci were not scored in the assay.
BBI, either as the free protein or in conjugated form to palmitic or oleic acid, was added to the cultures at 1.0 μg/ml for the first three weeks of the transformation assay period starting immediately after the MCA treatment. MCA-treated cells were exposed to 3-methylcholanthrene, dissolved in 25 μl of acetone, at a concentration of 1 μg/ml for 24 hr. Acetone-treated cells were exposed to 25 μl of acetone for 24 hr only. […]

Setting [3] is: MCA 1 μg/ml 24 hr, conjugates 1.0 μg/ml first three weeks, scored at six weeks.

B1: BBIssPal: the palmityl disulfide conjugate of BBI (conjugate, UniProt P01055 40-110, looked up)
Bowman-Birk type proteinase …: DDESSKPCCDQCACTKSNPPQCRCSDMRLNSCHSACKSCICALSYPAQCFCVDITDFCYEPCKPSEDDKEN
modifications: palmityl disulfide; 125I
notes: the palmityl disulfide conjugate of BBI
B1: the “Increase of BBI absorption into the skin” value in data set [1] is recorded as “more than 10 fold”. Moreover, the “Retention of anti-transformation activity of BBI” value in data set [2] (1.0 μg/ml) is reported as “retained the original biological activity of BBI”. In addition, in data set [2] (MCA 1 μg/ml 24 hr, conjugates 1.0 μg/ml first three weeks), the “Transformed foci” value is given as “one type II focus out of the 20 dishes”. For the same molecule, in data set [2] (setting [3]), the “Fraction of dishes containing transformed foci” value is given as 0.05 and the “No. of dishes with transformed foci/No. of dishes” value is recorded as 1/20.
